# B1: Recombinant NPM(1-183), the 183 NH2-terminal amino acids of nucleophosmin 1 (domain or fragment, human, UniProt P06748 1-183, looked up)
# chain: MEDSMDMDMSPLRPQNYLFGCELKADKDYHFKVDNDENEHQLSLRTVSLGAGAKDELHIVEAEAMNYEGSPIKVTLATLKMSVQPTVSLGGFEITPPVVLRLKCGSGPVHISGQHLVAVEEDAESEDEEEEDVKLLSISGKRSAPGGGSKVPQKKVKLAADEDDDDDDEEDDDEDDDDDDFDD
# notes: nucleophosmin 1 (NPM/B23), clone from a cDNA library of the human multiple myeloma cell line KMS34; also called NPM/B23; 1-183 NPM; source: E. coli, partially purified, fractionated by gel filtration
# Biological target: the molecule itself
# Test: SEC; gel filtration of recombinant NPM(1-183) from E. coli to separate oligomeric and monomeric forms; fractions checked by SDS-PAGE with CBB staining
protein,measurement,value
B1,binding result,binds

# From publication PMC3382596, “A Phthalimide Derivative That Inhibits Centrosomal Clustering Is Effective on Multiple Myeloma” (PLoS ONE, 2012)
